The source of these data is IntAct's records for PubMed 22244754.

B1: Phosphatidylinositol 3,4,5-trisphosphate 5-phosphatase 2 (Homo sapiens), O15357-1 (parent)
chain: MASACGAPGPGGALGSQAPSWYHRDLSRAAAEELLARAGRDGSFLVRDSESVAGAFALCVLYQKHVHTYRILPDGEDFLAVQTSQGVPVRRFQTLGELIGLYAQPNQGLVCALLLPVEGEREPDPPDDRDASDGEDEKPPLPPRSGSTSISAPTGPSSPLPAPETPTAPAAESAPNGLSTVSHDYLKGSYGLDLEAVRGGASHLPHLTRTLATSCRRLHSEVDKVLSGLEILSKVFDQQSSPMVTRLLQQQNLPQTGEQELESLVLKLSVLKDFLSGIQKKALKALQDMSSTAPPAPQPSTRKAKTIPVQAFEVKLDVTLGDLTKIGKSQKFTLSVDVEGGRLVLLRRQRDSQEDWTTFTHDRIRQLIKSQRVQNKLGVVFEKEKDRTQRKDFIFVSARKREAFCQLLQLMKNKHSKQDEPDMISVFIGTWNMGSVPPPKNVTSWFTSKGLGKTLDEVTVTIPHDIYVFGTQENSVGDREWLDLLRGGLKELTDLDYRPIAMQSLWNIKVAVLVKPEHENRISHVSTSSVKTGIANTLGNKGAVGVSFMFNGTSFGFVNCHLTSGNEKTARRNQNYLDILRLLSLGDRQLNAFDISLRFTHLFWFGDLNYRLDMDIQEILNYISRKEFEPLLRVDQLNLEREKHKVFLRFSEEEISFPPTYRYERGSRDTYAWHKQKPTGVRTNVPSWCDRILWKSYPETHIICNSYGCTDDIVTSDHSPVFGTFEVGVTSQFISKKGLSKTSDQAYIEFESIEAIVKTASRTKFFIEFYSTCLEEYKKSFENDAQSSDNINFLKVQWSSRQLPTLKPILADIEYLQDQHLLLTVKSMDGYESYGECVVALKSMIGSTAQQFLTFLSHRGEETGNIRGSMKVRVPTERLGTRERLYEWISIDKDEAGAKSKAPSVSRGSQEPRSGSRKPAFTEASCPLSRLFEEPEKPPPTGRPPAPPRAAPREEPLTPRLKPEGAPEPEGVAAPPPKNSFNNPAYYVLEGVPHQLLPPEPPSPARAPVPSATKNKVAITVPAPQLGHHRHPRVGEGSSSDEESGGTLPPPDFPPPPLPDSAIFLPPSLDPLPGPVVRGRGGAEARGPPPPKAHPRPPLPPGPSPASTFLGEVASGDDRSCSVLQMAKTLSEVDYAPAGPARSALLPGPLELQPPRGLPSDYGRPLSFPPPRIRESIQEDLAEEAPCLQGGRASGLGEAGMSAWLRAIGLERYEEGLVHNGWDDLEFLSDITEEDLEEAGVQDPAHKRLLLDTLQLSK

The variants in one assay derive from B1. The note with it: with epha2_human EPHA2, P29317.
Chain of epha2_human EPHA2, P29317 (P29317 whole entry): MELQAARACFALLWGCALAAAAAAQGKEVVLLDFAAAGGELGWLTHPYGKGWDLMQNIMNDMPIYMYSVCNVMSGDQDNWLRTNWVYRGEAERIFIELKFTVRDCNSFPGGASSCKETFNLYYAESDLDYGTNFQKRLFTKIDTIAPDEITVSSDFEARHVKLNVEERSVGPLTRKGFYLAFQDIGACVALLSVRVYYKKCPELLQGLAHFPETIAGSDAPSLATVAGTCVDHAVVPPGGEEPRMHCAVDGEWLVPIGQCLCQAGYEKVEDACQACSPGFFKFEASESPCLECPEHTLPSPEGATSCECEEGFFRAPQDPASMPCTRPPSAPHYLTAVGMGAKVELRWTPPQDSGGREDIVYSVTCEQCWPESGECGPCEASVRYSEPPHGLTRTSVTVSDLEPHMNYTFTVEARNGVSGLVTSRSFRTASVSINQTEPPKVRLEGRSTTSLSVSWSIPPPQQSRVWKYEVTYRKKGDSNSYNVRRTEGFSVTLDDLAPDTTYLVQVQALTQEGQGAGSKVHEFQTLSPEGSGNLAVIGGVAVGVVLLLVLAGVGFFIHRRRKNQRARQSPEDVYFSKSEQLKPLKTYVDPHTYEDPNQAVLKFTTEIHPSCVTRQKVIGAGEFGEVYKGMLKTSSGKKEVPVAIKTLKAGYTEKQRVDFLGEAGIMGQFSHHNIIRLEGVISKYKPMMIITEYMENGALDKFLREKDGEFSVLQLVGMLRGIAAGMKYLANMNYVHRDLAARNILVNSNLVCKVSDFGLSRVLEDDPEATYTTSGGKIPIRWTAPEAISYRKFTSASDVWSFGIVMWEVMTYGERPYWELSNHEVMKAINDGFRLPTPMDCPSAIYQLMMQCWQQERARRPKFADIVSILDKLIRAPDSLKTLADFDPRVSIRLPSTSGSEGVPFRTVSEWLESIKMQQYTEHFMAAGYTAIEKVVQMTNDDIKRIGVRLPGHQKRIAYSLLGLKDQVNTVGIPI
Take D1223A;D1224A: the “effect of a mutation on the interaction” value is on record as “disrupting interaction”.

Variants of B1 are the subject of a further assay. The note with it: with epha2_human EPHA2, P29317. This is another data set of the same source.
In the case of H1219S, the “effect of a mutation on the interaction” value was “increasing interaction”.
